Experimental findings from the RNAGym collection of RNA variant scans (doi:10.1093/molbev/msab373) are described below.

To fix the notation:
B1: Azoarcus group I ribozyme (parent)
chain: GUGCCUUGCGCCGGGAAACCACGCAAGGGAUGGUGUCAAAUUCGGCGAAACCUAAGCGCCCGCCCGGGCGUAUGGCAACGCCGAGCCAAGCUUCGGCGCCUGCGCCGAUGAAGGUGUAGAGACUAGACGGCACCCACCUAAGGCAAACGCUAUGGUGAAGGCAUAGUCCAGGGAGUGGCGAAAGUCACACAAACCGG

Variants of B1 are the subject of the data set. The data set is described as follows: reverse-splicing fitness (ratio to wild type); higher = more active; in vitro selection; Mg2+ level not given. Put shortly:
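An in vitro group I ribozyme library with randomized positions was T7-transcribed and gel-purified. In triplicate, 10 pmol RNA in EPPS pH 7.5 was reacted with 50 pmoles of a 30-nt RNA substrate for 1 h at 37 °C across several added MgCl2 levels (1–48 mM), then stopped with EDTA. Products were reverse transcribed from a substrate-complementary primer, PCR-amplified and sequenced (HiSeq 4000). Fitness is a variant's read proportion after selection over that before, normalised to wild type.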
Consider C82G A111U A120U A145G U176C, for which the reverse-splicing fitness turned out to be 0.0173.

C82G A111U A120U A145G U176A: the reverse-splicing fitness came to 0.0121.

As for C82G A111U A120U A145G U176G, the reverse-splicing fitness came to 0.00338.

As to C82G A111U A120U A145C C150U C169G U176C, the reverse-splicing fitness was determined as 0.00262.

As for C82G A111U A120U A145C C150U C169G U176G, the reverse-splicing fitness was found to be 0.0021.

On to C82G A111U A120U A145C C150U C169G U176A, for which the reverse-splicing fitness is 0.00298.

For the variant C82G A111U A120G A145U U176A, the reverse-splicing fitness came out at 0.0138.

On to C82G A111U A120G A145U U176G, for which the reverse-splicing fitness was determined as 0.00635.

Take C82G A111U A120G A145U U176C: the reverse-splicing fitness was found to be 0.0193.

As to C82G A111U A120G C150G U176G, the reverse-splicing fitness was found to be 0.00354.

For the variant C82G A111U A120G C150G U176A, the reverse-splicing fitness came out at 0.00658.

Consider C82G A111U A120G C150G U176C, for which the reverse-splicing fitness is 0.0117.

Take C82G A111U A120U A145C C150G C169U U176G: the reverse-splicing fitness worked out at 0.00252.

As to C82G A111U A120U A145C C150G C169U U176A, the reverse-splicing fitness came to 0.00273.

As to C82G A111U A120U A145C C150G C169U U176C, the reverse-splicing fitness came out at 0.00279.

As for C82G A111U A120G C169A U176A, the reverse-splicing fitness is 0.017.

Consider C82G A111U A120G C169A U176C, for which the reverse-splicing fitness was 0.0215.

As to C82G A111U A120G C169A U176G, the reverse-splicing fitness was 0.00437.

With C82G A111U A120U A145C C150U C169U, the reverse-splicing fitness is 0.00298.

As for C82G A111U A120U A145C C150U C169A, the reverse-splicing fitness worked out at 0.00282.

As to C82G A111U A120U A145C C150U C169G, the reverse-splicing fitness came out at 0.00286.

As to C82G A111U A120G C150U C169G U176C, the reverse-splicing fitness was 0.0205.

Turning to C82G A111U A120G C150U C169G U176A, the reverse-splicing fitness is 0.0168.

As to C82G A111U A120G C150U C169G U176G, the reverse-splicing fitness is 0.0053.

For C82G A111U A120U A145G C150U C169A, the reverse-splicing fitness stood at 0.00699.

For the variant C82G A111U A120U A145G C150U C169G, the reverse-splicing fitness came out at 0.00641.

Consider C82G A111U A120U A145G C150U C169U, for which the reverse-splicing fitness came to 0.00655.

On to C82G A111U A120G A145U C150U U176A, for which the reverse-splicing fitness was 0.0118.

For the variant C82G A111U A120G A145U C150U U176G, the reverse-splicing fitness turned out to be 0.00663.

With C82G A111U A120G A145U C150U U176C, the reverse-splicing fitness came out at 0.0175.

As for C82G A111U A120G A145G C150U C169G, the reverse-splicing fitness was 0.0128.

For C82G A111U A120G A145G C150U C169U, the reverse-splicing fitness is 0.0112.

As to C82G A111U A120U A145C C150U C169U U176A, the reverse-splicing fitness amounted to 0.00361.

With C82G A111U A120U A145C C150U C169U U176C, the reverse-splicing fitness was 0.00208.

In the case of C82G A111U A120U A145C C150U C169U U176G, the reverse-splicing fitness came out at 0.00228.

Consider C82G A111U A120G C169U U176A, for which the reverse-splicing fitness stood at 0.0197.

Take C82G A111U A120G C169U U176G: the reverse-splicing fitness is 0.00589.

C82G A111U A120G C169U U176C: the reverse-splicing fitness was 0.0179.

Take C82G A111U A120U A145G C150U C169G U176C: the reverse-splicing fitness was 0.00575.

Turning to C82G A111U A120U A145G C150U C169G U176A, the reverse-splicing fitness was 0.00833.

In the case of C82G A111U A120U A145G C150U C169G U176G, the reverse-splicing fitness stood at 0.00266.

C82G A111U A120U A145C C150G U176C: the reverse-splicing fitness came to 0.00425.

In the case of C82G A111U A120U A145C C150G U176G, the reverse-splicing fitness was found to be 0.00236.

Consider C82G A111U A120U A145C C150G U176A, for which the reverse-splicing fitness was 0.00296.

C82G A111U A120U A145G C150G C169A: the reverse-splicing fitness is 0.00873.

Take C82G A111U A120U A145G C150G C169G: the reverse-splicing fitness turned out to be 0.00714.

C82G A111U A120U A145G C150G C169U: the reverse-splicing fitness is 0.00767.

As to C82G A111U A120G A145G C150U C169A U176C, the reverse-splicing fitness came out at 0.0145.

Regarding C82G A111U A120G A145G C150U C169A U176G, the reverse-splicing fitness was determined as 0.00683.

On to C82G A111U A120G C150A U176C, for which the reverse-splicing fitness was found to be 0.0195.

In the case of C82G A111U A120G C150A U176A, the reverse-splicing fitness stood at 0.0143.

For the variant C82G A111U A120G C150A U176G, the reverse-splicing fitness amounted to 0.0103.

In the case of C82G A111U A120G C169U, the reverse-splicing fitness stood at 0.0106.

Regarding C82G A111U A120G C169G, the reverse-splicing fitness is 0.014.

Consider C82G A111U A120G C169A, for which the reverse-splicing fitness stood at 0.00993.

Take C82G A111U A120G A145U C150G C169G U176C: the reverse-splicing fitness worked out at 0.00489.

For C82G A111U A120G A145U C150G C169G U176A, the reverse-splicing fitness stood at 0.00644.

For the variant C82G A111U A120G A145U C150G C169G U176G, the reverse-splicing fitness was 0.00425.

For the variant C82G A111U A120G C150G C169G U176A, the reverse-splicing fitness amounted to 0.0069.

For C82G A111U A120G C150G C169G U176C, the reverse-splicing fitness was 0.00484.

On to C82G A111U A120G C150G C169G U176G, for which the reverse-splicing fitness turned out to be 0.00471.

On to C82G A111U A120U A145G C150A C169U U176C, for which the reverse-splicing fitness came out at 0.00514.

Take C82G A111U A120U A145G C150A C169U U176A: the reverse-splicing fitness was 0.00402.

Take C82G A111U A120U A145G C150A C169U U176G: the reverse-splicing fitness worked out at 0.00285.

As to C82G A111U A120U A145U C150G U176C, the reverse-splicing fitness is 0.006.

Turning to C82G A111U A120U A145U C150G U176G, the reverse-splicing fitness amounted to 0.00246.

For the variant C82G A111U A120U A145U C150G U176A, the reverse-splicing fitness turned out to be 0.00373.

With C82G A111U A120G C169G U176C, the reverse-splicing fitness worked out at 0.0225.

Take C82G A111U A120G C169G U176G: the reverse-splicing fitness was determined as 0.00448.

As for C82G A111U A120G C169G U176A, the reverse-splicing fitness was determined as 0.0187.

With C82G A111U A120G A145U C150A C169G U176C, the reverse-splicing fitness stood at 0.0163.

Consider C82G A111U A120G A145U C150A C169G U176G, for which the reverse-splicing fitness was 0.00501.

C82G A111U A120G A145U C150A C169G U176A: the reverse-splicing fitness came out at 0.0162.

Regarding C82G A111U A120U A145G C150U U176A, the reverse-splicing fitness is 0.0103.

For C82G A111U A120U A145G C150U U176C, the reverse-splicing fitness is 0.0151.

As for C82G A111U A120U A145G C150U U176G, the reverse-splicing fitness turned out to be 0.00433.

Regarding C82G A111U A120U A145U C169A, the reverse-splicing fitness was determined as 0.00258.

As for C82G A111U A120U A145U C150U C169U U176G, the reverse-splicing fitness turned out to be 0.0023.

For the variant C82G A111U A120U A145U C150U C169U U176C, the reverse-splicing fitness is 0.00369.

As to C82G A111U A120U A145U C150U C169U U176A, the reverse-splicing fitness was determined as 0.00325.

On to C82G A111U A120U A145U C150G C169U U176G, for which the reverse-splicing fitness stood at 0.00286.

Consider C82G A111U A120U A145U C150G C169U U176A, for which the reverse-splicing fitness is 0.00286.

Consider C82G A111U A120U A145U C150G C169U U176C, for which the reverse-splicing fitness was found to be 0.0029.
